Patent US20250195658A1 (ST JUDE CHILDREN S RESEARCH HOSPITAL, published 2025)
No end group written: not given here. *: point of attachment. Biotin = O=C1N[C@H]2[C@H](CS[C@H]2CCCCC(=O)*)N1; Ahx = NCCCCCC(=O)O

T1: Recombinant Human IL3RA protein conjugated to APC (Creative BioMart, CAT #IL3RA-3248HA) (human, UniProt P26951 19-305, limits assumed, conjugated to APC)
T1 construct: also called recombinant CD123 protein; Recombinant CD123
T1 sequence (looked up): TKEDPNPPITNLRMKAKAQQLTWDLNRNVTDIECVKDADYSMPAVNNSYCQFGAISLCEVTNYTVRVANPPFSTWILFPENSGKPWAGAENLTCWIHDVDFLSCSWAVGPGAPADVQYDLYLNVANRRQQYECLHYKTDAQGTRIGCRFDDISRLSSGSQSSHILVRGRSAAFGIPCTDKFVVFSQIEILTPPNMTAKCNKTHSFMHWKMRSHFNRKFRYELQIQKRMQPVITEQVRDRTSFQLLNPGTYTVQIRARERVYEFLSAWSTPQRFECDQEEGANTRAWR

B1: GRP78-GPcPcPc-CD123-CAR (other)
chain: CTVALPGGYVRVCEFAGSGGSGGSGGSPVPSTPPTNSSSTPPTPSPSPVPSTPPTNSSSTPPTPSPSPVPSTPPTNSSSTPPTPSPSASAAAQVQLQQPGAELVRPGASVKLSCKASGYTFTSYWMNWVKQRPDQGLEWIGRIDPYDSETHYNQKFKDKAILTVDKSSSTAYMQLSSLTSEDSAVYYCARGNWDDYWGQGTTLTVSSGGGGSGGGGSGGGGSDVQITQSPSYLAASPGETITINCRASKSISKDLAWYQEKPGKTNKLLIYSGSTLQSGIPSRFSGSGSGTDFTLTISSLEPEDFAMYYCQQHNKYPYTFGGGTKLEIKSIEVMYPPPYLDNEKSNGTIIHVKGKHLCPSPLFPGPSKPFWVLVVVGGVLACYSLLVTVAFIIFWVRSKRSRLLHSDYMNMTPRRPGPTRKHYQPYAPPRDFAAYRSRVKFSRSADAPAYQQGQNQLYNELNLGRREEYDVLDKRRGRDPEMGGKPRRKNPQEGLYNELQKDKMAEAYSEIGMKGERRRGKGHDGLYQGLSTATKDTYDALHMQALPPR
B2: GRP78-specific peptide with an N-terminal Biotin tag (Biotin-Ahx-CTVALPGGYVRVC) (peptide)
peptide: {Biotin-Ahx}-CTVALPGGYVRVC
modifications: cysteine pairing not given here
notes: Obtained from Genscript; Detected with Streptavidin PE in a 2-step staining; also called GRP78-biotin; GRP78 peptide
B3: GRP78-G4S3-CD123-CAR (other)
chain: CTVALPGGYVRVCEFGGGGSGGGGSGGGGSAAAQVQLQQPGAELVRPGASVKLSCKASGYTFTSYWMNWVKQRPDQGLEWIGRIDPYDSETHYNQKFKDKAILTVDKSSSTAYMQLSSLTSEDSAVYYCARGNWDDYWGQGTTLTVSSGGGGSGGGGSGGGGSDVQITQSPSYLAASPGETITINCRASKSISKDLAWYQEKPGKTNKLLIYSGSTLQSGIPSRFSGSGSGTDFTLTISSLEPEDFAMYYCQQHNKYPYTFGGGTKLEIKSIEVMYPPPYLDNEKSNGTIIHVKGKHLCPSPLFPGPSKPFWVLVVVGGVLACYSLLVTVAFIIFWVRSKRSRLLHSDYMNMTPRRPGPTRKHYQPYAPPRDFAAYRSRVKFSRSADAPAYQQGQNQLYNELNLGRREEYDVLDKRRGRDPEMGGKPRRKNPQEGLYNELQKDKMAEAYSEIGMKGERRRGKGHDGLYQGLSTATKDTYDALHMQALPPR
notes: Residues from 510 on (spacer RSGVDSG, T2A, tCD19) are also left out; also called 78.(G4S)3.123; G4S2

Key:
[1] = biological target: T1, Recombinant Human IL3RA protein …; assay: flow cytometry of CAR T cells stained with APC-conjugated recombinant human IL3RA (FIG. 2B)
Method: (§1) Flow cytometric analysis. Cells were stained with fluorochrome-conjugated primary antibodies for 30 min at room temperature and washed with FACS buffer (5% FBS in 1×PBS) prior to analysis. Cell surface GRP78 was detected by a GRP78-specific peptide with an N-terminal Biotin tag (Biotin-Ahx-[…]; SEQ ID NO: 126) was obtained from Genscript (Piscataway, NJ) in combination with Streptavidin PE (BioLegend, San Diego, CA. CCAT #405204) using a 2-step staining protocol. Cells were incubated with GRP78 peptide for 30 minutes at room temperature, protected from light. Cells were washed twice prior to staining with additional antibodies. Recombinant CD123 Recombinant Human IL3RA protein conjugated to APC (Creative BioMart, CAT #IL3RA-3248HA) was used to detect CD123 scFv binding. The following antibodies were purchased from BD Biosciences: CCR7 Pacific Blue (BD Pharmigen, Clone G043H7 CAT #353210), CD45RO PerCP-Cy5.5 (BD Pharmigen, Clone UCHL1, CAT #560607), CD123 APC (BD Pharmigen, Clone 7G3, CAT #560087), CD3 BV421 (BD Horizon, Clone SK7, CAT #563797), CD3 BV786 (BD Horizon, Clone SK7, CAT #563800), CD19 PE-Cy7 (BD Pharmigen, Clone HIB19, CAT #560728), CD20 BV650 (BD Horizon, Clone 2H7, CAT #563780). […]

[2] = biological target: T2, cell surface glucose-regulated-protein 78 (GRP78) (UniProt P11021 19-654, limits assumed); assay: flow cytometry on cell lines, 2-step staining with Streptavidin PE
T2 construct: whole, on cells; also called GRP78 antigen; HSPA5
T2 sequence (P11021 19-654 limits assumed): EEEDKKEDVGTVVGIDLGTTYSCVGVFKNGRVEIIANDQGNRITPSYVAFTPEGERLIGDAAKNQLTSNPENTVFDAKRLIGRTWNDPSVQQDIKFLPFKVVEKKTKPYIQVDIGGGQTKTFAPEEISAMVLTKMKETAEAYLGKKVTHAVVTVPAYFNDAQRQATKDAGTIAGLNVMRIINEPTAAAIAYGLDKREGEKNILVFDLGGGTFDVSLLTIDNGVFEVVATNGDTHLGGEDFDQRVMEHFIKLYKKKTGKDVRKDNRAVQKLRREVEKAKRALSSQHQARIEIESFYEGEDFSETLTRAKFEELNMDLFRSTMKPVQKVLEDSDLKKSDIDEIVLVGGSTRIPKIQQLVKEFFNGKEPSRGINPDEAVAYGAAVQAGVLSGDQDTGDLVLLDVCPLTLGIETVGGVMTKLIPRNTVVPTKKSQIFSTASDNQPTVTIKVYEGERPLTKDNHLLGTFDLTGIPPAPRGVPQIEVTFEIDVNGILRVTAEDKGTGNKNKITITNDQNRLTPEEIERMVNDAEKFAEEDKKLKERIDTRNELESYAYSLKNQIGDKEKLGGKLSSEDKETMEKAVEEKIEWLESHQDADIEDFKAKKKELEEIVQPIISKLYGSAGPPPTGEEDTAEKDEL
Method: as §1

| Binder | % of transduced T cells positive for recombinant CD123 protein [1] | binding result [2] |
| --- | --- | --- |
| B1 | 83.6% | – |
| B2 | – | binds |
| B3 | 87.5% | – |
